In the supplement of paper PMC9170038:

Key:
MS2 coat protein [1] = experiment: apparent KD of MS2 coat protein, switch OFF state (with FMN for OFF switches, without FMN for ON switches); designed switch direction (-1 OFF switch, 1 ON switch): -1; higher = weaker reporter binding; details: FMN input: 0 or 200 uM; Eterna round: R93 (includes R88 designs)
Method in brief: (§1)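 Designed RNA switches were transcribed on-chip from Illumina sequencing clusters. They were then titrated with SNAP-549-labelled MS2 coat protein (twofold steps, 0.7 or 1.5 nM to 3 µM; 0.8–1.5 h to 10–20 min per step) in 100 mM Tris-HCl pH 7.5, 80 mM KCl, 4 mM MgCl2, without or with constant ligand. Apparent KD is the per-design median of normalised cluster binding-curve fits.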

MS2 coat protein [2] = experiment: apparent KD of MS2 coat protein, switch ON state; designed switch direction (-1 OFF switch, 1 ON switch): -1; higher = weaker reporter binding; details: FMN input: 0 or 200 uM; Eterna round: R93 (includes R88 designs)
Method in brief: as §1

Sequence	apparent KD of MS2 coat protein (MS2 coat protein [1]) [nM]	apparent KD of MS2 coat protein (MS2 coat protein [2]) [nM]
AAAUAGCAAGGAUAUACAUGAGGAUCACCCAUGUGAACCAGGUAUGGAAUAGAAUAGAGUAGAAGGUGCAAAUA [Mod 3 of Ex 3 Tesla 8 - Jieux - Exclusion 3]	37.8	30.2
CCUAUGUCAGGAUAUCAGUAGUAAAAAAAAAAAAUUACUACUGAGAAGGGACAUGAGGAUCACCCAUGUACCUU [EX4 310: Super Stable 10]	17.8	25.5
GUUAUGUGAGGAUAUAUGUAGGAAACUACAUUAAGGGUAUCACAUGAGGAUCACCCAUGUAGAAGGCGCGUAGC [Ex2Try2_Neo]	256	283
AAGAAAGAAGGAUAUACAAGGAAGAAAGAAAAGAAAAGAAAACAUGAGGAUCACCCAUGUAGAAGGUCUUAGAA [EteRNA is fun!]	13.8	19.5
CAAAGGUGAGGAUAUACAAGGAUAUGACGAAAGUCAUAAAAACAUGAGGAUCACCCAUGUAGAAGGCACCACAA [E2 64% 4]	43.7	33.9
AAGAAGUCAGGAUAUGUCUGUGCGAAAAAAAAAAAGUGCAGACAGAAGGGACAUGAGGAUCACCCAUGUGGAAA [Florian 65% 7]	55.3	46.8
GGGUAACAUGAGGAUCACCCAUGUGAGGAUAUGCUAGGGAUGGAAGCCAGGCCAAAAAGCAGAAGGUACUAAAG [Janelle Amethyst 18 Mod 16 - Jieux - Exclusion 1]	34.3	23.6
AGCUAGUGAGGAUAUACGAACAUGUCAAAAGACUGUAAGGGACAUGAGGAUCACCCAUGUAGAAGGCACUAGCA [Diamond 55]	294	55.7
CAGUACUGAGGAUAUACAUGAGGAUCACCCAUGUGUAAAAGCUAGGAAACUAGCACAUGUAGAAGGCAGUACUG [Ex3: 815]	230	48.3
AAAGAUACAGGAUAUACAUGAGGAUCACCCAUGUGGAAUCUAAAAUGGGAAAAAGAAAGUAGAAGGGUAUAAAA [Ex 3 May 39]	63.5	34
GAAAAGUGAGGAUAUGUCAAAAGUCACAAAAGUGACAAAAGACAGAAGGCACAUGAGGAUCACCCAUGUGAAAA [Mat - Exaclusion 4 - Eli mod - D55]	43.8	24.2
AAAAAUGGAGGAUAUACAUGAGGAUCACCCAUGUGUAACUAAACAAAACACAAAAAAAGUAGAAGGCCAAAAAA [Gilly Gone Silly 6 - Jieux - Exclusion 3]	17.1	14.5
AGGGUACAUGAGGAUCACCCAUGUUAGGAUAUAGAAAAGAAAAGAAAAGAAAGAAGAACUAGAAGGGACAAGAA [Unas]	41.3	34.8
GAAAACAUAGGAUAUACAUGAGGAUCACCCAUGUUAAAAUAAAGAAAGGGAGAAAUAAGUAGAAGGAUGAAAAA [Mat - Mod of Meechl]	29.8	25.6
AAGAAGUGAGGAUAUCGAAGACAGACGAAAAGUCUGUCAAGCGAGAAGGCACAUGAGGAUCACCCAUGUGGAAG [Mat - Exaclusion 4 - Eli mod - D80]	33.4	31.8
AGAAUACAUGAGGAUCACCCAUGUGAGGAUAUCAAAAGAAAAAGAAAAGAAAAGAAAAUGAGAAGGCACAAAAG [EX 1 May 14]	51.7	48.3
AAAGGACGAGGAUAUACAUGAGGAUCACCCAUGUAAAAAACGUAAUAAAAGAACUUAUGUAGAAGGCGUCCAAA [69%, Moding Meechl, 7]	221	60.9
AAGAACAGAGGAUAUACAUGAGGAUCACCCAUGUAAAAGAAAGAAAGGGAAAAGAAAAGUAGAAGGCUGAAGAA [Neferkare Heqawaset Amenemnisu]	43.4	32.3
AAGAAGGUAGGAUAUACAAAAUAAAAGAAAAGAAAGAAAGAACAUGAGGAUCACCCAUGUAGAAGGGCCAAGAA [Khendjer]	35.3	84.2
AAACAACAUGAGGAUCACCCAUGUUAGGAUAUGAACGAAAAUAAAUAAAAAUAAAAGUUCAGAAGGGACAAAAA [66%, Wbt, 20]	28.2	23
GGUUUGCUAGGAUAUACAUGAGGAUCACCCAUGUGAGAGAAAAAAGUGAGAAAGAAAAGUAGAAGGAGCGGACG [salish99-ex3-122]	66.4	68.2
AAAAAGUGAGGAUAUAGCAAAGGUCACGAAAGUGACAAAGGCUAGAAGGCACAUGAGGAUCACCCAUGUCCAAA [Fiskers Exclusion 4 D2 63% 2]	55.6	24.7
